Test [1] has as its target human HER2 (hHER2) on cells (human). As to the kind of experiment: cell-based or functional assay.
For test [2], the target named is HER2 and TROP2 expressed together on NCI-H292 cells and NCI-N87 cells (human). Briefly: cell-based or functional assay.
The target of test [3] is human HER2 (hHER2) on cells (human). As to the kind of experiment: flow cytometry, NCI-H292 cells (express HER2 and TROP2). Background: Flow cytometry measures light scatter and fluorescence of single cells or particles in a stream.
The target is the same in test [4]. As to the kind of experiment: flow cytometry, NCI-N87 cells (express HER2 and TROP2).

In test [1], Isotype control (antibody) displayed an endocytosis: MFI of 9840 and an endocytosis: Percentage of Positive (%) of 1.1%. In test [2], this substance had an endocytosis, direct detection: MFI of 4900; an endocytosis, direct detection: Percentage of Positive Population of 1.86%; an endocytosis, indirect detection: MFI of 4920; an endocytosis, indirect detection: Percentage of Positive Population of 1.88%.

Turning to Pertuzumab analog (antibody), in test [1], the endocytosis, direct detection: MFI amounted to 15700; the endocytosis, direct detection: Percentage of Positive Population amounted to 74.7%; the endocytosis, indirect detection: MFI worked out at 21000; the endocytosis, indirect detection: Percentage of Positive Population stood at 79.5%. In test [1], this substance had an endocytosis: MFI of 100000 and an endocytosis: Percentage of Positive (%) of 97.1%.

In test [1], Trastuzumab analog (antibody) showed an endocytosis, direct detection: MFI of 18900; an endocytosis, direct detection: Percentage of Positive Population of 82.5%; an endocytosis, indirect detection: MFI of 23400; an endocytosis, indirect detection: Percentage of Positive Population of 87.3%. In test [1], this substance returned an endocytosis: MFI of 50400 and an endocytosis: Percentage of Positive (%) of 88%. The substance further came in with a flow cytometry test result (%) in test [3] of 97.8%. Moreover, the flow cytometry test result (%) in test [4] stood at 98.5%.

The values are drawn from patent publication US20250059297A1.
